Test results as given in patent publication US20040093164A1, “Computer system and methods for producing morphogen analogs of human TDF-1” (priority 2002, published 2004).
Values belong to the molecule of their own block, whether it stands above or below them.

Experiments:
ROS cells = assay: effect of alpha-2 macroglobulin on TDF-1 stimulated alkaline phosphatase activity in a ROS cell assay; format: cell-based
alpha-2 macroglobulin [1] = target: T1, alpha-2 macroglobulin (Homo sapiens, UniProt P01023); assay: competition binding assay with immobilized alpha-2 macroglobulin and labeled and unlabeled TDF-1; details: immobilized alpha-2 macroglobulin
T1 sequence (P01023 24-1474): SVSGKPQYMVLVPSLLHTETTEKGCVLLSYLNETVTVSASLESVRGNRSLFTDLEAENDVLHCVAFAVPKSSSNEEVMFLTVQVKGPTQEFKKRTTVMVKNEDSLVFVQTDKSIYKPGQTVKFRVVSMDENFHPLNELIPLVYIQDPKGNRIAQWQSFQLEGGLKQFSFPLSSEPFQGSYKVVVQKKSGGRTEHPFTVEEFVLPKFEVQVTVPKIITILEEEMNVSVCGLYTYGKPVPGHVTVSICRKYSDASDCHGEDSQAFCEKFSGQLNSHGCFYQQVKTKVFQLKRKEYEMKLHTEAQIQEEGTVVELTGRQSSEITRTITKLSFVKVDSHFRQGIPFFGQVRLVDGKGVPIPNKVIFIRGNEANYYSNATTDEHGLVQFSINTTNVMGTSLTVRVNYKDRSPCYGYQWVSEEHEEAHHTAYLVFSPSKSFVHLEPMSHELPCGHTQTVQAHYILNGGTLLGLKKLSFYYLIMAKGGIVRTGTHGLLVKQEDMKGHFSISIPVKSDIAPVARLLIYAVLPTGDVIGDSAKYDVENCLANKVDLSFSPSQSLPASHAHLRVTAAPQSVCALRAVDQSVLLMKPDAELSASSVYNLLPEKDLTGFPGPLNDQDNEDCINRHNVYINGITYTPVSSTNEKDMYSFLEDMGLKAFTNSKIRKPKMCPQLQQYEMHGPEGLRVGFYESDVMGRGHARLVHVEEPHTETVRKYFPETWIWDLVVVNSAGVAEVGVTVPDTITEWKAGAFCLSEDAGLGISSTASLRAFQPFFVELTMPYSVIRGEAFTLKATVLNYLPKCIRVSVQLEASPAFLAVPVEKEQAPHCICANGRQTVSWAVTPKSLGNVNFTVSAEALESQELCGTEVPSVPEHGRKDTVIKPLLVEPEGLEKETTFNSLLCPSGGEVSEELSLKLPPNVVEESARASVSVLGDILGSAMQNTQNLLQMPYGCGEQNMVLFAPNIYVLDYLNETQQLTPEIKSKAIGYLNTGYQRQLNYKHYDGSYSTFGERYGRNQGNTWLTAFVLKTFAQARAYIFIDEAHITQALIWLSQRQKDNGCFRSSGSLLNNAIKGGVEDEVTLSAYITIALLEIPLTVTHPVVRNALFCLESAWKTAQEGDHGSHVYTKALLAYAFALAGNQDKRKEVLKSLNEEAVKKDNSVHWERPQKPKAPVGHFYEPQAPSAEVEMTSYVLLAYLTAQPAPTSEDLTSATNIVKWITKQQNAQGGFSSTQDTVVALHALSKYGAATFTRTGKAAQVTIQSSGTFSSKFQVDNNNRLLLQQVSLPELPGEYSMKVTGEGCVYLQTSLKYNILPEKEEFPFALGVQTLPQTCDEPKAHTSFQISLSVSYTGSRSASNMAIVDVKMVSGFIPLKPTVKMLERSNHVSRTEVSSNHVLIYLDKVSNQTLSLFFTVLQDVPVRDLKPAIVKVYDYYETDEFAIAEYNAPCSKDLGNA
From the text: This N-terminal portion of the protein, which is not part of the crystal structure, is positively charged and likely is highly flexible in solution.

alpha-2 macroglobulin [2] = assay: competition binding assay, immobilized alpha-2 macroglobulin
[3] = solubility by comparing the partition coefficient of mutein versus wild type hTDF-1 dimer; format: physicochemical; details: partition coefficient comparison, surmised result
From the text: The resulting candidate morphogen analogs can be produced using conventional site-directed mutagenesis methodologies, and the effect of the site-directed modification on the solubility of the hTDF-1 dimer can be measured, for example, by comparing the partition coefficient or “salting out properties” of the modified hTDF-1 dimer versus the native hTDF-1 dimer. See, for example, Scopes (1987) in Protein Purification: Principles and Practice, 2nd Edition (Springer-Verlag); and Englard et al. (1990) Meth. Enzymol. 182: 285-300, both incorporated herein by reference.
The enhanced solubility of the resulting morphogen analog is measured by comparing the partition coefficient of the Ala 63->Ser 63 mutein versus wild type hTDF-1 dimer. […] It is contemplated that additional muteins having multiple hydrophobic to hydrophilic substitutions can be produced and characterized using the protocols described in this Example. The biological activity of the resulting morphogen analogs can be determined using one or more of the TDF-1 activity assays described Example 1.

interaction with alpha-2 macroglobulin (alpha-2 macroglobulin [1]): interact specifically
Molecule: TDF-1: tissue morphogenic protein Transformation and Differentiation Factor-1, SEQ ID NO:1

fold less affinity than TDF-1 (alpha-2 macroglobulin [2]): 10 fold
Molecule: truncated mature TDF-1, wherein the first 22 amino acids have been cleaved from the mature form of TDF-1 in a standard trypsin digest (ligand)

The next lines start with the molecule.

Molecule: Alpha-2 macroglobulin: protease scavenging protein known to bind proteins in serum and target them to the kidney for clearance
interference with TDF-1's ability to stimulate alkaline phosphatase activity (ROS cells): not to interfere

B1: Ala 63->Ser 63 mutein: hTDF-1 with the alanine at position 63 mutated to a serine (protein, UniProt P18075 293-431, looked up, variant A63S)
Bone morphogenetic protein 7: STGSKQRSQNRSKTPKNQEALRMANVAENSSSDQRQACKKHELYVSFRDLGWQDWIIAPEGYSAYYCEGECAFPLNSYMNATNHAIVQTLVHFINPETVPKPCCAPTQLNAISVLYFDDSSNVILKKYRNMVVRACGCH
solubility versus native hTDF-1 [3]: higher solubility than native hTDF-1
